Measured values published in the supplement of paper PMC9112550, “Optimization of the antimicrobial peptide Bac7 by deep mutational scanning” (BMC Biology, 2022).

Tested on: Escherichia coli TOP10
Assay: shrunken log2 fold change of peptide-encoding DNA abundance (4.5 h post-induction vs induction); higher = less antimicrobial activity (less host growth inhibition)
Conditions: time post-induction: 4.5 h; library: site-saturation at positions 5, 18, 19, 20
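Also: peptides expressed intracellularly from a pBAD plasmid library in pooled LB shake-flask culture, induced with 0.3% L-arabinose, DNA abundance read by NGS, three biological replicates, DESeq2 with apeglm shrinkage.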

| Sequence | shrunken log2 fold change |
| --- | --- |
| RRIRERPPRLPRPRPRPFCEPRP | -0.0162 |
| RRIRGRPPRLPRPRPRPDRSPRP | 0.23 |
| RRIRERPPRLPRPRPRPITRPRP | -0.149 |
| RRIRQRPPRLPRPRPRPHHKPRP | -0.205 |
| RRIRERPPRLPRPRPRPPTIPRP | -0.0452 |
| RRIRQRPPRLPRPRPRPEDPPRP | -0.00697 |
| RRIRQRPPRLPRPRPRPTNAPRP | -0.309 |
| RRIRVRPPRLPRPRPRPIRQPRP | -0.294 |
| RRIRQRPPRLPRPRPRPHIIPRP | -0.362 |
| RRIRDRPPRLPRPRPRPALEPRP | 0.659 |
| RRIRWRPPRLPRPRPRPPDIPRP | 0.238 |
| RRIRSRPPRLPRPRPRPPRIPRP | 0.132 |
| RRIRIRPPRLPRPRPRPDYAPRP | -0.154 |
| RRIRLRPPRLPRPRPRPTPWPRP | 0.381 |
| RRIRKRPPRLPRPRPRPNSMPRP | -0.115 |
| RRIRARPPRLPRPRPRPKKPPRP | 0.0922 |
| RRIRDRPPRLPRPRPRPRSIPRP | -0.0279 |
| RRIRPRPPRLPRPRPRPHGCPRP | 0.0229 |
| RRIRHRPPRLPRPRPRPNNMPRP | -0.674 |
| RRIRRRPPRLPRPRPRPSLHPRP | 0.114 |
| RRIRNRPPRLPRPRPRPYLVPRP | -0.161 |
| RRIRLRPPRLPRPRPRPTPCPRP | 0.152 |
| RRIRHRPPRLPRPRPRPIKKPRP | -0.06 |
| RRIRKRPPRLPRPRPRPHEVPRP | -0.00968 |
| RRIRRRPPRLPRPRPRPSSAPRP | 0.421 |

| Sequence | shrunken log2 fold change |
| --- | --- |
| RRIRFRPPRLPRPRPRPCVWPRP | 0.0426 |
| RRIRQRPPRLPRPRPRPCKPPRP | -0.207 |
| RRIRHRPPRLPRPRPRPPLHPRP | 0.0208 |
| RRIRKRPPRLPRPRPRPRTIPRP | 0.262 |
| RRIRPRPPRLPRPRPRPHDQPRP | 0.134 |
| RRIRPRPPRLPRPRPRPLHHPRP | -0.0808 |
| RRIRLRPPRLPRPRPRPVVMPRP | -0.282 |
| RRIRTRPPRLPRPRPRPFYRPRP | -0.189 |
| RRIRRRPPRLPRPRPRPWAAPRP | 0.403 |
| RRIRMRPPRLPRPRPRPGIDPRP | 0.403 |
| RRIRYRPPRLPRPRPRPCRPPRP | -0.0124 |
| RRIRWRPPRLPRPRPRPNNKPRP | -0.392 |
| RRIRLRPPRLPRPRPRPPISPRP | 0.0176 |
| RRIRLRPPRLPRPRPRPNDYPRP | -0.582 |
| RRIRFRPPRLPRPRPRPFFAPRP | 0.424 |
| RRIRPRPPRLPRPRPRPWHTPRP | -0.087 |
| RRIRVRPPRLPRPRPRPSYCPRP | -0.18 |
| RRIRCRPPRLPRPRPRPNYVPRP | -0.304 |
| RRIRDRPPRLPRPRPRPSDRPRP | 0.159 |
| RRIRPRPPRLPRPRPRPMMLPRP | -0.143 |
| RRIRVRPPRLPRPRPRPSKIPRP | -0.0852 |
| RRIRSRPPRLPRPRPRPVSWPRP | 0.437 |
| RRIRMRPPRLPRPRPRPDWEPRP | 0.382 |
| RRIRPRPPRLPRPRPRPQKKPRP | -0.113 |
| RRIRERPPRLPRPRPRPECNPRP | 0.0631 |

| Sequence | shrunken log2 fold change |
| --- | --- |
| RRIRWRPPRLPRPRPRPLDNPRP | -0.23 |
| RRIRDRPPRLPRPRPRPNPMPRP | -0.0935 |
| RRIRRRPPRLPRPRPRPKNEPRP | 0.294 |
| RRIRWRPPRLPRPRPRPELEPRP | 1.35 |
| RRIRFRPPRLPRPRPRPVKEPRP | -0.0554 |
| RRIRNRPPRLPRPRPRPDTHPRP | -0.105 |
| RRIRSRPPRLPRPRPRPYGNPRP | -0.621 |
| RRIRPRPPRLPRPRPRPAPAPRP | 0.425 |
| RRIRSRPPRLPRPRPRPKIPPRP | 1.16 |
| RRIRWRPPRLPRPRPRPIKEPRP | 0.0169 |
| RRIRHRPPRLPRPRPRPAEAPRP | -0.0896 |
| RRIRIRPPRLPRPRPRPPCPPRP | -0.141 |
| RRIRNRPPRLPRPRPRPEYKPRP | -0.203 |
| RRIRARPPRLPRPRPRPLVWPRP | 0.774 |
| RRIRYRPPRLPRPRPRPHDHPRP | 1.33 |
| RRIRDRPPRLPRPRPRPSYHPRP | -0.835 |
| RRIRQRPPRLPRPRPRPKEQPRP | -0.0394 |
| RRIRGRPPRLPRPRPRPQQMPRP | 0.287 |
| RRIRDRPPRLPRPRPRPELFPRP | 0.184 |
| RRIRERPPRLPRPRPRPSDPPRP | -0.417 |
| RRIRARPPRLPRPRPRPNFIPRP | -0.521 |
| RRIRARPPRLPRPRPRPNQTPRP | 0.064 |
| RRIRMRPPRLPRPRPRPMMIPRP | -0.025 |
| RRIRARPPRLPRPRPRPECFPRP | 0.938 |
| RRIRTRPPRLPRPRPRPLGRPRP | 2.94 |

| Sequence | shrunken log2 fold change |
| --- | --- |
| RRIRRRPPRLPRPRPRPNGNPRP | 0.0494 |
| RRIRDRPPRLPRPRPRPWWAPRP | 0.61 |
| RRIRTRPPRLPRPRPRPCMPPRP | -0.143 |
| RRIRDRPPRLPRPRPRPFCEPRP | 0.159 |
| RRIRFRPPRLPRPRPRPWGHPRP | -0.000438 |
| RRIRGRPPRLPRPRPRPVELPRP | 0.354 |
| RRIRKRPPRLPRPRPRPARIPRP | 0.0491 |
| RRIRFRPPRLPRPRPRPRHAPRP | 0.389 |
| RRIRARPPRLPRPRPRPRGMPRP | 0.32 |
| RRIRFRPPRLPRPRPRPWLCPRP | -0.173 |
| RRIRIRPPRLPRPRPRPLNDPRP | -0.351 |
| RRIRKRPPRLPRPRPRPEWKPRP | 0.0315 |
| RRIRPRPPRLPRPRPRPIMLPRP | -0.114 |
| RRIRRRPPRLPRPRPRPVWTPRP | 0.436 |
| RRIRDRPPRLPRPRPRPDTRPRP | 0.203 |
| RRIRERPPRLPRPRPRPKQSPRP | -0.0888 |
| RRIRCRPPRLPRPRPRPWLYPRP | -0.246 |
| RRIRARPPRLPRPRPRPCCNPRP | 0.278 |
| RRIRKRPPRLPRPRPRPEMWPRP | 0.719 |
| RRIRARPPRLPRPRPRPMQFPRP | 0.091 |
| RRIRMRPPRLPRPRPRPFSPPRP | -0.189 |
| RRIRHRPPRLPRPRPRPIGQPRP | -0.042 |
| RRIRCRPPRLPRPRPRPSYCPRP | -0.342 |
| RRIRVRPPRLPRPRPRPIQCPRP | 0.078 |
| RRIRMRPPRLPRPRPRPAVFPRP | 0.383 |

| Sequence | shrunken log2 fold change |
| --- | --- |
| RRIRERPPRLPRPRPRPQDMPRP | -0.492 |
| RRIRARPPRLPRPRPRPQYGPRP | -0.442 |
| RRIRNRPPRLPRPRPRPKDRPRP | -0.0176 |
| RRIRCRPPRLPRPRPRPDGDPRP | 0.0934 |
| RRIRQRPPRLPRPRPRPVRCPRP | 0.841 |
| RRIRTRPPRLPRPRPRPFKQPRP | 0.0538 |
| RRIRERPPRLPRPRPRPHLWPRP | 2.71 |
| RRIRVRPPRLPRPRPRPGEPPRP | 0.043 |
| RRIRWRPPRLPRPRPRPEREPRP | 0.295 |
| RRIRHRPPRLPRPRPRPNEQPRP | -0.0176 |
| RRIRGRPPRLPRPRPRPENLPRP | -0.0405 |
| RRIRIRPPRLPRPRPRPICQPRP | -0.418 |
| RRIRLRPPRLPRPRPRPFMTPRP | -0.824 |
| RRIRERPPRLPRPRPRPHPYPRP | -0.103 |
| RRIRYRPPRLPRPRPRPVPDPRP | -0.0838 |
| RRIRPRPPRLPRPRPRPTFGPRP | 0.191 |
| RRIRYRPPRLPRPRPRPNMFPRP | -0.186 |
| RRIRWRPPRLPRPRPRPSKQPRP | 0.143 |
| RRIRGRPPRLPRPRPRPQKNPRP | 0.368 |
| RRIRLRPPRLPRPRPRPPDKPRP | 0.0844 |
| RRIRSRPPRLPRPRPRPFVIPRP | -0.206 |
| RRIRKRPPRLPRPRPRPAGPPRP | 0.368 |
| RRIRNRPPRLPRPRPRPAWDPRP | 0.151 |
| RRIRFRPPRLPRPRPRPVRWPRP | 0.632 |
| RRIRFRPPRLPRPRPRPRYHPRP | -0.295 |
